Patent US20170176465, “RNA APTAMER AND SENSOR EMPLOYING SAME” (Kyocera Corporation, published 2017)

Tests used:
[1] = target: Hemoglobin (Hb), full length (Homo sapiens, UniProt P69905;P68871 P69905:2-142,P68871:2-147); experiment: surface acoustic wave sensor phase change; 11.6 uM Hb; signal rises with Hb concentration; HBS-P + MgCl2; conditions: tags: Abcam ab77858; chain copies: 2,2; label: 5'-biotin, 5'-amino or 5'-thiol
Method: (§1) (11) A hemoglobin sample having been diluted into 11.6 μM with HBS-P(+MgCl2) was introduced through the passage 15 to the sensing element 3. Then, the amount of phase change occurring after 5 minutes of reaction was measured. Similarly, measurement was performed with employing human serum albumin (HSA) as a sample. Further, as for the hemoglobin sample, measurement was performed on samples of various concentrations.

[2] = target: Human serum albumin (HSA) (Homo sapiens, UniProt P02768 P02768:25-609); experiment: surface acoustic wave sensor; 5'-thiol aptamer; conditions: label: 5'-biotin, 5'-amino or 5'-thiol
Human serum albumin (HSA), sequence (P02768 25-609, one chain of several): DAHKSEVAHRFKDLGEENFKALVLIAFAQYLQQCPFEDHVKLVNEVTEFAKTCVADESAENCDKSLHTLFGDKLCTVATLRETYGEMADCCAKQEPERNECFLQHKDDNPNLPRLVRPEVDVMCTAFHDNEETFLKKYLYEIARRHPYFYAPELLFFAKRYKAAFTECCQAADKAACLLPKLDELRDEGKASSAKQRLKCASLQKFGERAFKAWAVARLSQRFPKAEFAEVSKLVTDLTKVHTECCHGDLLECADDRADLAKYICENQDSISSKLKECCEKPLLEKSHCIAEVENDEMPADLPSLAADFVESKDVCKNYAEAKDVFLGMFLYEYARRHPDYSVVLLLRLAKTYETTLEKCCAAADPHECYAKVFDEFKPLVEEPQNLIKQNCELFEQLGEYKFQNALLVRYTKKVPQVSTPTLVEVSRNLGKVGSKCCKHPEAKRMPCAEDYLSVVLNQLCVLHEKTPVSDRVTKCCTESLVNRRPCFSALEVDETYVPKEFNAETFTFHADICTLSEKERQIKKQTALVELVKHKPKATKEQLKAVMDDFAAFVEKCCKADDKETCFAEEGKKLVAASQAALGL
Method: as §1

Hemoglobin (Hb), full length, sequence (P69905 2-142, chain 1 of 2): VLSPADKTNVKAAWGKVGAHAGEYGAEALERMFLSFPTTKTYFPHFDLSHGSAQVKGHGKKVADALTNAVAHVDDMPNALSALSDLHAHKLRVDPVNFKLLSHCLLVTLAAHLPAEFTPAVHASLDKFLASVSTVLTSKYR
Hemoglobin (Hb), full length, sequence (P68871 2-147, chain 2 of 2): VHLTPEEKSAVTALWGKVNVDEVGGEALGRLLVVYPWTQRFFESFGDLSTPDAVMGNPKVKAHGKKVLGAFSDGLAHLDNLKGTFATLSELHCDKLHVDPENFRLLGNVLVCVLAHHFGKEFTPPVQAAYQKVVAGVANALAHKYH

## CGUAUUACGGCAUUAUUAGGACCAAUGCUGAGUACG (ssRNA) [6R_28 partial (36-mer)]
[1]
  binding result: binds
[2]
  binding result: no binding
